Reference: the nanobody polyreactivity screen of Harvey et al. (2022)

Assay: yeast display, Sf9 membrane polyspecificity reagent, FACS + sequencing; frameworks hold sequencing errors
Method in brief: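 Nanobodies from a synthetic yeast display library (Saccharomyces cerevisiae BJ5465), induced 36–48 hours with galactose, were stained 1 hour at 4 °C with 10% biotinylated, detergent-solubilized Sf9 membrane reagent, enriched on streptavidin microbeads, then FACS-sorted. Anti-HA (expression) and streptavidin (reagent binding) fluorescence set low and high (top ~1%) gates. Polyreactivity labels come from the gate of origin. Genes were colony-PCR amplified, MiSeq 2 × 250 sequenced and filtered by CDR length.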

Sequence	polyreactivity (PSR sort gate)
QVKILESGGGLVQAVCSLRLSCASGSTYLYAMGRYRQAPVKEREMVATISSTGSTYYADSVKGRFTISRDNAKNTVYLQMNSLKPEDTAVYYCAADVCNNGWIYGSYDEYDYWGQGTQVTVSS	high polyreactivity
QVQLVESAGGLVQAGGSLRLSCAASGRTFGKYAMGWYRQAPGKERELVAAITGGGGTKYADSVKGRFTISRDNAKNTVYLQKNSLKPEDTAVYYCAAASGSRRHGYWGQGTQVTVSS	high polyreactivity
QVQLVESGGGLVQAGGSLRLSCAASGRTFPGYAMGWYRQAPGKERELVAAITSSGSSTYYADSVKGRFTISRDNAKNTVYLQMNSLKPEDTAVYYCAAKTSGDYDYWGQGSQVTVSS	low polyreactivity
QVQLVESGGGLVQAGGSLRLSCAASGTIYYNTMGWYRQAPGKERELVASISRTGSTKYADSVKGRFTISRDNAKNTVYLQMNSLKPEDTAVYYCAADYLAFREGAVWLYDYWGQGTQVTVSS	high polyreactivity
QVQLVESGGGLVQAGGSLRLSCAASGSTLVGNAMGWYRQAPGKERELVAAISSSGTSTYYADSVKGRFTISRDNAKNTVYLQMNSLKPEDTAVYYCAAYVYGVGMDYWGQGTQVTVSS	high polyreactivity
QVQLVESGGGLVQAGGSLRLSCAASGFTFVNYARGWYRQAPGKERELVAAIRRSGSRTYYADSVKGRFTISRDNAKNTVYLQMHSLKPEDTAVYYCAAVWYRLYGYWGQGTQVTVSS	low polyreactivity
QVQLVESGGGLVQAGGSLRLSCAASGIIFVDYVMGWYRQAPGKERELVAAITYTGGSTYYADSVKGRFTISRDNAKNTVYLQMNSLKPEDTAVYYCAARRKHRFFPAYYYWGQGTQVTVSS	high polyreactivity
QVQLVESAGGLVQAGGSLRLSCAASGSTFYPNAMGWYRQAPGKERELVAAISRGTRTKYADSVKGRFTISRDNAKNTVYLQMNSMKPEDTAVYYCAPLTYQSYWSVDGYYYWGQGTQVTVSS	high polyreactivity
QGQLVESGGGLVQAGGSLRLSCAASGSIFGINAMGWYRQAPGKERELVAAISGSTSRTYYADSVKGRFTISRDNAKKTVYLQMNSLKPEDTAVYYCAVVGLRSVTRRSDYWGQGTQVTVSS	high polyreactivity
QVQLVESGGGLVQAGGSLRLSCAASGRIFRGNAMGWYRQARGKERELVAGISVRGGRTYYADSVKGRFTISRDNAKNTVYLQMNSLKPEDTAVYYCAAVFWDDYGKYYYWGQGTQVTVSS	high polyreactivity
QVQLVESGGGLVQAGGSLRLSCAASGRTFASYAMGWYRQAPVKERELVARISKSGGSTYYADSVKGRFTISRDNAKNTVYLQMNSLKPEDTAVYYCAATRYPYLYRSEVGSDYWGQGTQVNVSS	low polyreactivity
QVQLVESGGGLVQAGGSLRLSCAASGRTFGRYDMGWYRQAPGKERELVAAITGGVITTYADSVKGRFTISRDNAKNTVYLQMKSLKREDTAVYDCAARYNVFPSPHYYYWGQGTQVTVSS	low polyreactivity
QVQLVESGGGLVQAGGSLRLSCAASGFTLLGYAMGWYRQAPGKERELVAAISRGGNTYYADSVKGRFTISRDNAKNTVYLQMNSLKPEDTAVYNCAAQTYSTGYVTRFNYWGQGTQVTVSS	high polyreactivity
QVQLVESGGGLVQAGGSLRLSCASSGRTFYQNAMGWYRQAPGKESEFVAAITGGTGSTHYADSVKGRFTISRDNAKNTVYLQMNSLKPEDTAVYYCATRYLFGFSRYDYWGQGTQVTVSS	low polyreactivity
QVQLVESGGGLVQAGGSLRLSCAASGSIFQGYSMGWYRQAPGKERELVAAITASGGSTYYADSVKGRFTISRDNAKNTVSLKMNSLKPEDTAVYYCATDSYWRHDLYRYEYWGQGSQVTVSS	high polyreactivity
QVQLVESGGGLVQAGGSLRLRCAASGSTFSGYAMGWYRKGPGKERELVAAISSGGGSTYYADSVKGRFTISRYNAKNTVYLQMNSLKPEDTDVYYCATGYPWYCGQGTQVTVSS	high polyreactivity
QVQLVESGGGLVQAGGSLRLSCAASGSIFRFYAMGWYRQAPGKERELVAAITRRGGRTYYADSVKGRFTISRDNAKNTVYLQMNSLIPEDTAVYYCAAASKKPPSFEYNYWGQGTQLTVSS	high polyreactivity
QVQLVESGGGLVQAGGSLRLSCAASGFIFRYYAMGWYRQAPGTERELVAAISQSGGSTDYADSVKGRFTISRDTAKNTVYLQMNSLKPVDTAVYYCATRTPYTKRDYWGQGTQVTVSS	high polyreactivity
QVQHVESGGGLVQAGGSLRISCAASGSIFYYNAMGWYRQAPGKERELVAAISWGDGITYYADSVKGRFTISRDNAKNTVYLQMNSLKPEDTAVYYCAVDYYYLAYEYWGQGTQVTVSS	high polyreactivity
QVQLVETGGCLVQAGGSLRLSCAASGSTLHYYAMGWSRQAPGKQREFVAGISRYGGRTYNADSVKGRFTISRDNAKNTVYLQMNSLKPEDTAVYYCNAVLVGYRPYREFDHWGQGTQVTVSS	high polyreactivity
QVQLVESGGGLVQAGGSLRLSCAASGSTFSGNAMGWYRQAPGKERELVARIRWSTGSTYYADSVKGRFTISRDNAKNTVYLQMNSLKPEDTAVYYCNARGTPWRYGGDYWGQGTQVTVSS	low polyreactivity
QVQLVESGGGLVQAGGSLRLSCAASGSIFYTYAMGGYRPAPGKERELVAAISSGGSTTYADSVKGRFTISRDNAKNTVYLQMTSLKPEDTAVYYCNTSYRKKKRYYYWGQGTQVTVSS	high polyreactivity

Sequence	polyreactivity (PSR sort gate)
QVQLVESGGGLVQSGGSLRLSCAASGSTFSINAMGWYRQAPGKERELVAAITWRGVRTYYADSVKGRFTITRDNAKNTVYFQMNSLKPEDTAVYYCAADVVVAGHPGFDYWGQGTQVTVSS	high polyreactivity
QVQLVESGGGLVQAGGSLRLTCAASGSIYKYKAMGWYRQAPGKERELVAAIRWSGVGTRYADSVKGRFTISRDNAKNSLYLQMNSLKREDTAVYYCAADVSKYHDGHEYDYWGQGTQVTVSS	low polyreactivity
QVQLVESGGGLVQAGGSLRLSCAASGSTFVPYAMGWYRQAPGKERELVAAINIGGRTNYADSVKGRFTISRDNAKNTVYLQMNSLKPEDTAVYYCAAEWGYYARSQYYYWGQGTQVTVSS	low polyreactivity
QVQLVESGGGLVQAGGSLRLSCAASGITFLGNAMGWYRQAPGKERELVAAISASGGRTYYADSVKGRFTISRDNAKNTVYLQMNSLKPEDTPVYYCAAASKPWYYYWGQGTQVTVSS	high polyreactivity
QVQLVESGGGLVQAGGSLRLSCAASGSIYAYYAMGWYRQAPGKERELVATISGGGVGTYYADSVKGRFTISRDNAKNSVYLQMNSLKPEDTAVYYCAADGAQAVIYGDRIEMDYWGQGTQVTVSS	low polyreactivity
QVQLVESGGGLVQAGGSLRLSCAASGSISDSYAMGWYRQAPGKERELVAAITSGDSTYYADSVKGRFTISRDNAKNTVYLQMNSLKPEDTAFYYCAKRVSRVRGYGFTDWSEYDYWGQGTQVTVSS	low polyreactivity
QVQLVESGGGLVQAGGSLRLSCAASGRTFRKYTMGWYRQAPGKERELVAAITLSGGSTYYADSVKGRFTISRDNAKNTVYLQMNSLKPEDTAVYYCAARYNRGAFDYWGQGTQVTVSS	high polyreactivity
QVQLVESGGGLVQAGGSLRLSCGASGFTFRSYAMGWYRQAPGKEGELVATISSGGTTKYADSVQGRFTISRDNANNTVYLQMNSLKPEDTAVYYCAARTSVLGRNFNYWGQGTQVTVSS	high polyreactivity
QVQLVESGGGIDKAGGSLRLSCAPSGGIFIRYAMGWYRQAPGKERELVAGIDSGGGTKYADSVKGRFTISRDNAKNTVYLQMNSLKPEDTAVYYCNGEVSVWPFSYDYWGQGTQVTVSS	low polyreactivity
QVQLVESGGGLVQAGGSLRLSCAASGFIFDVNALGWSRQATGKERELVATISKRGGTTYYADSVKGRFTISRDNAKNTVYLQMYSLKPDDTAVYYCAARHQTLRSYRYDYWGQGTQVTVSS	low polyreactivity
QVQLVESGGCLVQAGGSLRLSCAASGSTFPAYAMGWYRPAPGKERELVAAISRSGGSTYYADSVKGRFTISRDNAKNTVYLQMNSLKPEDTAVYYCAARAAYSYDDGYWGQGTQVTVSS	high polyreactivity
QVQLVESGGGLVQAGGSLRLSCAASGLTFYGYGMGWYRQAPGKERELVASITSGGNTYYADSVKGRFTISRDNAKNTVYLKMNSLKPEDTAVYYCAVTAIALYYSSGYYWGQGTQVTVSS	low polyreactivity
QVQLVESGGGLVQAGGSLRLSCAASGSIFSIYAMGWYRQAPGKERELVAAITWGGGSTYYADSVKGRFTISRDNAKNTVNLQMNSLKPEDTAVYYCAADSLTWFGTYYYWGQGTQVTVSS	high polyreactivity
QVQLVESGGGLVQAGGSLRLSCAASGLTFYSNAMGWYRQAPGKERELVARISTGGSTYADSEKGRFTISRDNAKNTVYLQMNSLKPEDTSFFYCAKLPPRGIDDEYWGQGTQVTVSS	low polyreactivity
QVQLVESGGGLVQAGGSLRLSCAASGRTFYINAMGWSRQAPGKERELVAAITWSGGRTYYADSVKGRFTISRDNAKNTVYLQMNSLKPEDTAVYYCAVGYVYTRKGRVQPVKYDYWGQGTQVTVSS	high polyreactivity
QVQLVESGGVLVQAGGSLRISCAASGNTFVHYAMGWYRQAPGKEREFVAAISSSGGSTYYADSVKGRFTISRDNAKNTVYLQMNSLKPEDTAVYYCAAGGWPYSGGWFFQPNYDYWGQGTQVTVSS	low polyreactivity
QVQLVESGGGLVQAGGSLRLSCAASGFIFGRKSMGWYRQAPGKERELVAAISSGDSTYYADSVKGRFTISRDNAKNTVYLQMNSLKPEDTAVYYCAARLVRQQSRPKGGYWGQGTQVTVSS	high polyreactivity
QVQLVESGGGLVQAGGSLRLSCAASGFTFDKYAMGRYRQAPGKERDLDAGITRSGSTYYADSVKGRFTISRDNAKNTVYLQMNSLKPEDTAVYYCKARPRGSYNRPNYPRYYYCGQGTQVTVSS	high polyreactivity
QVQLVESGGGLVQAGGSLRLSCAASGSIFYWYAMGWYRQAPGKERELVATITRGGSTNYADSVKGRFTISRDNAKNTVYLQMNSLKPEDTAVYYCAAQRVGHKRSTKLDYWGQGTQVTVSS	low polyreactivity
QVQLVESGGGLVQAGGSLRLSCAASGNTFPSYVMGWYRQAPGKERELVAAINRGGGTYYADSVKGRFTISRDNAKNTVYLQMNSLKPEVTAVYYCAVRDQRHPYMDYWGQGTQVTVSA	low polyreactivity
QVQLVESGGGLVQAGGSLRLSCAASGRIFNSKAKGWYRQEPGKERELVAAISWSGGTTYYADSVKGRFTISRDNAKNTVYLQMNSLKPEDTAVYYCNADLWTSYFGRGDYWGQGTQVTVSS	low polyreactivity
